# Assay results as given in patent US20020155571A1, “Triazine degrading enzymes” (priority 2000, published 2002).
# Assay: High throughput mass spectrometry screen of triazine hydrolase library against about 15 triazine derivatives
# Assay type: biochemical
# Conditions: Table 5; the value is the triazine substrate the library member (atzA-based variant) is active on; preferred members, not exclusive
row,Molecule,Substrate Activity
1,113 (protein) MQTLSIQHGTLVTMDQYRRVLGDSWVHVQDGRIVALGVHAESVPPPADRVIDARGKVVLPGFINAHTHVNQILLRGGPSHGRQFYDWLFNVLYPGQKAMRPEVAVAVRLYCAEAVRSGITTINEEADSAIYPGNIEAAMAVYGEVGVRVVYARMFFDRMDGRIQGYVDALKARSPQVELCSIMEETAVAKDRITALSDQYHGTAGGRISVWPAPATTTTVTVEGMRWAQAFARDRAVMWTLHMAESDHDERIIGGSPAEYMECYGLLDERLQVAHCVYFDRKDVRLLHRHNVKVASQVVSNAYLGSGVAPVPEMVERGMAVGIGTDNDNSCDSVNMIGDMKFMAHIHRAVHRDADVLTPEKILEMATIDGARSLGMDHEIGSIETGKRADLILLDLRHPQTTPHHHLAATIVFQAYGNEVDTVLIDGNVVMENRRLSFLPPERELAFLEEAQSRATAILQRANMVANPAWRSL,atratone
2,124 (protein) MQTLSIQHGTLVTMDQYRRVLGDSWVHVQDGRIVALGVHAESVPPPADRVIDARGKVVLPGFINAHTHVNQILLRGGPSHGRQFYDWLFNVLYPGQKAMRPEVAVAVRLYCAEAVRSGITTINEEADSAIYPGNIEAAMAVYGEVGVRVVYARMFFDRMDGRIQGYVDALKARSPQVELCSIMEETAVAKDRITALSDQYHGTAGGRISVWPAPATTTTVTVEGMRWAQAFARDRAVMWTLHMAESDHDERILGGSPAEYMECYGLLDERLQVAHCVYFDRKDVRLLHRHNVKVASQVVSNAYLGSGVAPVPEMVERGMAVGIGTDNNNSSDSVNMIGDMKFMAHIHRAVHRDADVLTPEKILEMATIDGARSLGMDHEIGSIETGKRADLILLDLRHPQTTPHHHLAATIVFQAYGNEVDTVLIDGNVVMENRRLSFLPPERELAFLEEAQSRATAILQRANMVANPAWRSL,atrazine
3,128 (protein) MQTLSIQHGTLVTMDQYRRVLGDSWVHVQDGRIVALGVHAESVPPPADRVIDARGKVVLPGFINAHTHVNQILLRGGPSHGRQFYDWLFNVLYPGQKAMRPEVAVAVRLYCAEAVRSGITTINEEADSAIYPGNIEAAMAVYGEVGVRVVYARMFFDRMDGRIQGYVDALKARSPQVELCSIMEETAVAKDRITALSDQYHGTAGGRISVWPAPATTTTVTVEGMRWAQAFARDRAVMWTLHMAESDHDERILGWSPAEYMECYGLLDERLQVAHCVYFDRKDVRLLHRHNVKVASQVVSNAYLGSGVAPVPEMVERGMAVGIGTDNNNSSDSVNMIGDMKFMAHIHRAVHRDADVLTPEKILEMATIDGARSLGMDHEIGSIETGKRADLILLDLRHPQTTPHHHLAATIVFQAYGNEVDTVLIDGNVVMENRRLSFLPPERELAFLEEAQSRATAILQRANMVANPAWRSL,atrazine
4,117 (protein) MQTLSIQHGTLVTMDQYRRVLGDSWVHVQDGRIVALGVHAESVPPPADRVIDARGKVVLPGFINAHTHVNQILLRGGPSHGRQFYDWLFNVLYPGQKAMRPEVAVAVRLYCAEAVRSGITTINEEADSAIYPGNIEAAMAVYGEVGVRVVYARMFFDRMDGRIQGYVDALKARSPQVELCSIMEETAVAKDRITALSDQYHGTAGGRISVWPAPATTTTVTVEGMRWAQAFARDRAVMWTLHMAESDHDERIIGWSPAEYMECYGLLDERLQVAHCVYFDRKDVRLLHRHNVKVASQVVSNAYLGSGVAPVPEMVERGMAVGIGTDNDNSCDSVNMIGDMKFMAHIHRAVHRDADVLTPEKILEMATIDGARSLGMDHEIGSIETGKRADLILLDLRHPQTTPHHHLAATIVFQAYGNEVDTVLIDGNVVMENRRLSFLPPERELAFLEEAQSRATAILQRANMVANPAWRSL,atratone

# Same assay, conditions: substrate ametryn; preferred substrates, not exclusive
row,Molecule,Substrate Activity: ametryn
1,370 (protein) MQTLSIQHGTLVTMDQYRRVLGDSWVHVQDGRIVALGVHAESVPPPADRVIDARGKVVLPGFINAHTHVNQILLRGGPSHGRQLYDWLFNVLYPGQKAMRPEVAVAVRLYCAEAVRSGITTINEEADSAIYPGNIEAAMAVYGEVGVRVVYARMFFDRMDGRIQGYVDALKARSPQVELCSIMEETAVAKDRITALSDQYHGTAGGRISVWPAPATTTTVTVEGMRWAQAFARDRAVMWTLHMAESDHDERIIGGSPAEYMECYGLLDERLQVAHCVYFDRKDVRLLHRHNVKVASQVVSNAYLGSGVAPVPEMVERGMAVGIGTDNDNSSDSVNMIGDMKFMAHIHRAVHRDADVLTPEKILEMATIDGARSLGMDHEIGSIETGKRADLILLDLRHPQTTPHHHLAATIVFQAYGNEVDTVLIDGNVVMENRRLSFLPPERELAFLEEAQSRATAILQRANMVANPAWRSL,ametryn
2,318 (protein) MQTLSIQHGTLVTMDQYRRVLGDSWVHVQDGRIVALGVHAESVPPPADRVIDARGKVVLPGFINAHTHVNQILLRGGPSHGRQLYDWLFNVLYPGQKAMRPEVAVAVRLYCAEAVRSGITTINEDADSAIYPGNIEAAMAVYGEVGVRVVYARMFFDRMDGRIQGYVDALKARSPQVELCSIMEETAVAKDRITALSDQYHGTAGGRISVWPAPATTTTVTVEGMRWAQAFARDRAVMWTLHMAESDHDERILGWSPAEYMECYGLLDERLQVAHCVYFDRKDVRLLHRHNVKVASQVVSNAYLGSGVAPVPEMVERGMAVGIGTDNDNSSDSVNMIGDMKFMAHIHRAVHRDADVLTPEKILEMATIDGARSLGMDHEIGSIETGKRADLILLDLRHPQTTPHHHLAATIVFQAYGNEVDTVLIDGNVVMENRRLSFLPPERELAFLEEAQSRATAILQRANMVANPAWRSL,ametryn
3,314 (protein) MQTLSIQHGTLVTMDQYRRVLGDSWVHVQDGRIVALGVHAESVPPPADRVIDARGKVVLPGFINAHTHVNQILLRGGPSHGRQLYDWLFNVLYPGQKAMRPEVAVAVRLYCAEAVRSGITTINEDADSAIYPGNIEAAMAVYGEVGVRVVYARMFFDRMDGRIQGYVDALKARSPQVELCSIMEETAVAKDRITALSDQYHGTAGGRISVWPAPATTTTVTVEGMRWAQAFARDRAVMWTLHMAESDHDERILGGSPAEYMECYGLLDERLQVAHCVYFDRKDVRLLHRHNVKVASQVVSNAYLGSGVAPVPEMVERGMAVGIGTDNDNSSDSVNMIGDMKFMAHIHRAVHRDADVLTPEKILEMATIDGARSLGMDHEIGSIETGKRADLILLDLRHPQTTPHHHLAATIVFQAYGNEVDTVLIDGNVVMENRRLSFLPPERELAFLEEAQSRATAILQRANMVANPAWRSL,ametryn
4,382 (protein) MQTLSIQHGTLVTMDQYRRVLGDSWVHVQDGRIVALGVHAESVPPPADRVIDARGKVVLPGFINAHTHVNQILLRGGPSHGRQLYDWLFNVLYPGQKAMRPEVAVAVRLYCAEAVRSGITTINEEADSAIYPGNIEAAMAVYGEVGVRVVYARMFFDRMDGRIQGYVDALKARSPQVELCSIMEETAVAKDRITALSDQYHGTAGGRISVWPAPATTTTVTVEGMRWAQAFARDRAVMWTLHMAESDHDERILGWSPAEYMECYGLLDERLQVAHCVYFDRKDVRLLHRHNVKVASQVVSNAYLGSGVAPVPEMVERGMAVGIGTDNDNSSDSVNMIGDMKFMAHIHRAVHRDADVLTPEKILEMATIDGARSLGMDHEIGSIETGKRADLILLDLRHPQTTPHHHLAATIVFQAYGNEVDTVLIDGNVVMENRRLSFLPPERELAFLEEAQSRATAILQRANMVANPAWRSL,ametryn

# Same assay, conditions: substrate nme-atrazine; column lists substrates on which the library member shows preferred triazine hydrolase activity, not exclusive
row,Molecule,Substrate Activity: nme-atrazine
1,345 (protein) MQTLSIQHGTLVTMDQYRRVLGDSWVHVQDGRIVALGVHAESVPPPADRVIDARGKVVLPGFINAHTHVNQILLRGGPSHGRQLYDWLFNVLYPGQKAMRPEVAVAVRLYCAEAVRSGITTINEEADSAIYPGNIEAAMAVYGEVGVRVVYARMFFDRMDGRIQGYVDALKARSPQVELCSIMEETAVAKDRITALSDQYHGTAGGRISVWPAPATITTVTVEGMRWAQAFARDRAVMWTLHMAESDHDERILGGSPAEYMECYGLLDERLQVAHCVYFDRKDVRLLHRHNVKVASQVVSNAYLGSGVAPVPEMVERGMAVGIGTDNDNSCDSVNMIGDMKFMAHIHRAVHRDADVLTPEKILEMATIDGARSLGMDHEIGSIETGKRADLILLDLRHPQTTPHHHLAATIVFQAYGNEVDTVLIDGNVVMENRRLSFLPPERELAFLEEAQSRATAILQRANMVANPAWRSL,nme-atrazine
2,349 (protein) MQTLSIQHGTLVTMDQYRRVLGDSWVHVQDGRIVALGVHAESVPPPADRVIDARGKVVLPGFINAHTHVNQILLRGGPSHGRQLYDWLFNVLYPGQKAMRPEVAVAVRLYCAEAVRSGITTINEEADSAIYPGNIEAAMAVYGEVGVRVVYARMFFDRMDGRIQGYVDALKARSPQVELCSIMEETAVAKDRITALSDQYHGTAGGRISVWPAPATITTVTVEGMRWAQAFARDRAVMWTLHMAESDHDERILGWSPAEYMECYGLLDERLQVAHCVYFDRKDVRLLHRHNVKVASQVVSNAYLGSGVAPVPEMVERGMAVGIGTDNDNSCDSVNMIGDMKFMAHIHRAVHRDADVLTPEKILEMATIDGARSLGMDHEIGSIETGKRADLILLDLRHPQTTPHHHLAATIVFQAYGNEVDTVLIDGNVVMENRRLSFLPPERELAFLEEAQSRATAILQRANMVANPAWRSL,nme-atrazine

# Same assay, conditions: substrate propazine; column indicates preferred embodiments, not exclusive
row,Molecule,Substrate Activity
1,244 (protein) MQTLSIQHGTLVTMDQYRRVLGDSWVHVQDGRIVALGVHAESVPPPADRVIDARGKVVLPGFINAHTHVNQILLRGGPSHGRQFYDWLFNVVYPGQKAMRPEVAVAVRLYCAEAVRSGITTINEEADSAIYPGNIEAAMAVYGEVGVRVVYARMFFDRMDGRIQGYVDALKARSPQVELCSIMEETAVAKDRITALSDQYHGTAGGRISVWPAPATTTTVTVEGMRWAQAFARDRAVMWTLHMAESDHDERIIGGSPAEYMECYGLLDERLQVAHCVYFDRKDVRLLHRHNVKVASQVVSNAYLGSGVAPVPEMVERGMAVGIGTDNNNSSDSVNMIGDMKFMAHIHRAVHRDADVLTPEKILEMATIDGARSLGMDHEIGSIETGKRADLILLDLRHPQTTPHHHLAATIVFQAYGNEVDTVLIDGNVVMENRRLSFLPPERELAFLEEAQSRATAILQRANMVANPAWRSL,propazine
2,248 (protein) MQTLSIQHGTLVTMDQYRRVLGDSWVHVQDGRIVALGVHAESVPPPADRVIDARGKVVLPGFINAHTHVNQILLRGGPSHGRQFYDWLFNVVYPGQKAMRPEVAVAVRLYCAEAVRSGITTINEEADSAIYPGNIEAAMAVYGEVGVRVVYARMFFDRMDGRIQGYVDALKARSPQVELCSIMEETAVAKDRITALSDQYHGTAGGRISVWPAPATTTTVTVEGMRWAQAFARDRAVMWTLHMAESDHDERIIGWSPAEYMECYGLLDERLQVAHCVYFDRKDVRLLHRHNVKVASQVVSNAYLGSGVAPVPEMVERGMAVGIGTDNNNSSDSVNMIGDMKFMAHIHRAVHRDADVLTPEKILEMATIDGARSLGMDHEIGSIETGKRADLILLDLRHPQTTPHHHLAATIVFQAYGNEVDTVLIDGNVVMENRRLSFLPPERELAFLEEAQSRATAILQRANMVANPAWRSL,propazine
